One molecule from US20130205416A1 can be followed below.

Common to all, as to test: cell-based or functional assay
The target of assay [1] is haemagglutinin of influenza virus A/Udorn/72 (H3N2) (Influenza A virus A/Udorn/72 H3N2).
For assay [2], the target named is haemagglutinin of A/England/195/09 (H1N1), on PR8 recombinant virus (Influenza A virus A/England/195/09 (H1N1)).
Assay [3] has as its target haemagglutinin of A/Victoria/3/75 (H3N2), on PR8 recombinant virus (Influenza A virus A/Victoria/3/75 (H3N2)), P03435.

B1: FP3 peptide (…) (peptide)
peptide: WLVFFVIFYFFRRRKK
modifications: not checked
B1: the IC50 in plaque reduction assay in assay [1] and in assay [3] was 16 µM each time. The IC50 of inhibition of infectivity (plaque reduction assay) in assay [2] is 0.066 to 0.1 µM.
